In IntAct's records for PubMed 20819940:

B1: High mobility group protein B1 (Rattus norvegicus (Rat)), P63159 (parent)
chain: MGKGDPKKPRGKMSSYAFFVQTCREEHKKKHPDASVNFSEFSKKCSERWKTMSAKEKGKFEDMAKADKARYEREMKTYIPPKGETKKKFKDPNAPKRPPSAFFLFCSEYRPKIKGEHPGLSIGDVAKKLGEMWNNTAADDKQPYEKKAAKLKEKYEKDIAAYRAKGKPDAAKKGVVKAEKSKKKKEEEDDEEDEEDEEEEEEEEDEDEEEDDDDE

Variants of: B1
Conditions: with becn1_mouse Becn1, O88597
Chain of becn1_mouse Becn1, O88597 (O88597 whole entry): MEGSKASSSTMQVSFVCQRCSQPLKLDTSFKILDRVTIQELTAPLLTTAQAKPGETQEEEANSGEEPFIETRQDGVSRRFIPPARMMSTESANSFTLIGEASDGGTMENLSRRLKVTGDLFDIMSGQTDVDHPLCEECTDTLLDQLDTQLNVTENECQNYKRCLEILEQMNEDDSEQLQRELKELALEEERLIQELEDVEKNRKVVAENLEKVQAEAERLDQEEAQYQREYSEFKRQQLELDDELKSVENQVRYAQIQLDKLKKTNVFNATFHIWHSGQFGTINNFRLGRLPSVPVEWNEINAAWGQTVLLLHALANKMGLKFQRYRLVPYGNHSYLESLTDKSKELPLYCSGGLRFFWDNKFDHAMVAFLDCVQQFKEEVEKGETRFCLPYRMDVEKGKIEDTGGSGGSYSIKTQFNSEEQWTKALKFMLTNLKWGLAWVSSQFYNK

effect of a mutation on the interaction | Variant
disrupting interaction | MGKGDPKKPRGKMSSYAFFVQTCREEHKKKHPDASVNFSEFSKKSSERWKTMSAKEKGKFEDMAKADKARYEREMKTYIPPKGETKKKFKDPNAPKRPPSAFFLFCSEYRPKIKGEHPGLSIGDVAKKLGEMWNNTAADDKQPYEKKAAKLKEKYEKDIAAYRAKGKPDAAKKGVVKAEKSKKKKEEEDDEEDEEDEEEEEEEEDEDEEEDDDDE [C45S]
disrupting interaction | MGKGDPKKPRGKMSSYAFFVQTSREEHKKKHPDASVNFSEFSKKCSERWKTMSAKEKGKFEDMAKADKARYEREMKTYIPPKGETKKKFKDPNAPKRPPSAFFLFCSEYRPKIKGEHPGLSIGDVAKKLGEMWNNTAADDKQPYEKKAAKLKEKYEKDIAAYRAKGKPDAAKKGVVKAEKSKKKKEEEDDEEDEEDEEEEEEEEDEDEEEDDDDE [C23S]
